Measured values from JP2005330292A (dated 2005).
Numbering of substitutions follows the chain as printed.

B1: H鎖ヒト型化バージョンa/L鎖キメラ抗体 (antibody, V domains shown)
VH: QVQLLESGAVLARPGTSVKISCKASGFNIKDYYMHWVKQRPGQGLEWIGGNDPANGHSMYDPKFQGRAKLTAATSASIAYLEFSSLTNEDSAVYYCARDSGYAMDYWGQGTLVTVSS
VL: DIKMTQSPSSMYASLGERVTITCKASQDIKSFLSWYQQKPWKSPKTLIYYATSLADGVPSRFSGSGSGQDYSLTINNLESDDTATYYCLQHGESPYTFGGGTKLEIK
notes: Human IgG4 kappa (vector N5KG4P); also called a-ch
B2: H鎖ヒト型化バージョンc/L鎖キメラ抗体 (antibody, V domains shown)
VH: QVQLLESGAVLARPGTSVKISCKASGFNIKDYYMHWVKQRPGQGLEWIGGNDPANGHSMYDPKFQGRVTMLVDTSKNQFSLRLSSVTAADTAVYYCARDSGYAMDYWGQGTLVTVSS
VL: B1 VL
notes: Human IgG4 kappa (vector N5KG4P); also called c-ch
B3: H鎖ヒト型化バージョンa/L鎖ヒト型化バージョンa抗体 (antibody, V domains shown)
VH: B1 VH
VL: DIQMTQSPSSLSASVGDRVTITCKASQDIKSFLSWYQQKPGKAPKLLIYYATSLADGVPSRFSGSGSGTDFTLTISSLQPEDFATYYCLQHGESPYTFGGGTKVEIK
notes: Human IgG4 kappa (vector N5KG4P); also called a-a
B4: H鎖ヒト型化バージョンb/L鎖キメラ抗体 (antibody, V domains shown)
VH: QVQLLESGAVLARPGTSVKISCKASGFNIKDYYMHWVKQRPGQGLEWIGGNDPANGHSMYDPKFQGRVTITADTSTNTAYMELSSLRSEDTAIYYCARDSGYAMDYWGQGTLVTVSS
VL: B1 VL
notes: Human IgG4 kappa (vector N5KG4P); also called b-ch
B5: H鎖ヒト型化バージョンj/L鎖キメラ抗体 (antibody, V domains shown)
VH: B4 VH with I70F, T76A, S84R, E89A, I93V
VL: B1 VL
notes: Human IgG4 kappa (vector N5KG4P); also called j-ch
B6: H鎖ヒト型化バージョンi/L鎖キメラ抗体 (antibody, V domains shown)
VH: B4 VH with N77S, A79V, Y80F, I93V
VL: B1 VL
notes: Human IgG4 kappa (vector N5KG4P); also called i-ch
B7: H鎖ヒト型化バージョンe/L鎖キメラ抗体 (antibody, V domains shown)
VH: B4 VH with T69S, T74E, N77K, T78I, S84N, I93V, Y95F
VL: B1 VL
notes: Human IgG4 kappa (vector N5KG4P); also called e-ch
B8: H鎖ヒト型化バージョンd/L鎖キメラ抗体 (antibody, V domains shown)
VH: B4 VH with T74E, N77S, T91S, I93V, Y95F
VL: B1 VL
notes: Human IgG4 kappa (vector N5KG4P); also called d-ch
B9: H鎖キメラ/L鎖ヒト型化バージョンb抗体 (antibody, V domains shown)
VH: EVQLQQSGTNLVRPGALVKLSCKGSGFNIKDYYMHWVKQRPEQGLEWIGGNDPANGHSMYDPKFQGKASITADTSSNTAYLQLSSLTSEDTAVYFCARDSGYAMDYWGQGTSVTVSS
VL: B3 VL with F71Y
notes: Human IgG4 kappa (vector N5KG4P); also called ch-b
B10: H鎖ヒト型化バージョンb/L鎖ヒト型化バージョンb抗体 (antibody, V domains shown)
VH: B4 VH
VL: B3 VL with F71Y
notes: Human IgG4 kappa (vector N5KG4P); also called b-b; bb
B11: H鎖ヒト型化バージョンi/L鎖ヒト型化バージョンb抗体 (antibody, V domains shown)
VH: B4 VH with N77S, A79V, Y80F, I93V
VL: B3 VL with F71Y
notes: Human IgG4 kappa (vector N5KG4P); also called i-b; ib
B12: H鎖ヒト型化バージョンi/L鎖ヒト型化バージョンb2抗体 (antibody, V domains shown)
VH: QVQLLESGAVLARPGTSVKISCKASGFNIKDYYMHWVKQRPGQGLEWIGGNDPANGHSMYDPKFQGRVTITADTSTSTVFMELSSLRSEDTAVYYCARDSGYAMDYWGQGTLVTVSSAS
VL: B3 VL with G41E, L46S, F71Y
notes: Human IgG4 kappa (vector N5KG4P); also called i-b2; ib2
B13: H鎖ヒト型化バージョンd3/L鎖ヒト型化バージョンb抗体 (antibody, V domains shown)
VH: B4 VH with K38R, R40A, T74E, N77S, T91S, I93V, Y95F
VL: B3 VL with F71Y
notes: Human IgG4 kappa (vector N5KG4P); also called d3-b
B14: H鎖キメラ/L鎖ヒト型化バージョンb1抗体 (antibody, V domains shown)
VH: B9 VH
VL: B3 VL with Y36F, A43S, L46T, F71Y
notes: Human IgG4 kappa (vector N5KG4P); also called ch-b1
B15: H鎖キメラ/L鎖ヒト型化バージョンc抗体 (antibody, V domains shown)
VH: B9 VH
VL: B3 VL with F71Y, F83I
notes: Human IgG4 kappa (vector N5KG4P); also called ch-c
B16: H鎖ヒト型化バージョンd/L鎖ヒト型化バージョンb抗体 (antibody, V domains shown)
VH: B4 VH with T74E, N77S, T91S, I93V, Y95F
VL: B3 VL with F71Y
notes: Human IgG4 kappa (vector N5KG4P); also called d-b
B17: H鎖キメラ/L鎖ヒト型化バージョンb2抗体 (antibody, V domains shown)
VH: B9 VH
VL: B3 VL with G41E, L46S, F71Y
notes: Human IgG4 kappa (vector N5KG4P); also called ch-b2
B18: H鎖ヒト型化バージョンb3/L鎖ヒト型化バージョンb抗体 (antibody, V domains shown)
VH: B4 VH with K38R, R40A
VL: B3 VL with F71Y
notes: Human IgG4 kappa (vector N5KG4P); also called b3-b
B19: H鎖ヒト型化バージョンb/L鎖ヒト型化バージョンc抗体 (antibody, V domains shown)
VH: B4 VH
VL: B3 VL with F71Y, F83I
notes: the construction of its expression plasmid is not described; also called b-c
B20: H鎖キメラ/L鎖ヒト型化バージョンa抗体 (antibody, V domains shown)
VH: B9 VH
VL: B3 VL
notes: Human IgG4 kappa (vector N5KG4P); also called ch-a
B21: H鎖ヒト型化バージョンb/L鎖ヒト型化バージョンa抗体 (antibody, V domains shown)
VH: B4 VH
VL: B3 VL
notes: Human IgG4 kappa (vector N5KG4P); also called b-a
B22: H鎖ヒト型化バージョンj/L鎖ヒト型化バージョンb抗体 (antibody, V domains shown)
VH: B4 VH with I70F, T76A, S84R, E89A, I93V
VL: B3 VL with F71Y
notes: Human IgG4 kappa (vector N5KG4P); also called j-b
B23: H鎖ヒト型化バージョンi/L鎖ヒト型化バージョンb1抗体 (antibody, V domains shown)
VH: B4 VH with N77S, A79V, Y80F, I93V
VL: B3 VL with Y36F, A43S, L46T, F71Y
notes: Human IgG4 kappa (vector N5KG4P); also called i-b1
B24: H鎖ヒト型化バージョンg/L鎖ヒト型化バージョンb抗体 (antibody, V domains shown)
VH: B4 VH with R67K, V68A, I70L, T74E, T76S, N77S, E82Q, T91S, I93V, Y95S
VL: B3 VL with F71Y
notes: Human IgG4 kappa (vector N5KG4P); also called g-b
B25: H鎖ヒト型化バージョンb/L鎖ヒト型化バージョンb2抗体 (antibody, V domains shown)
VH: B4 VH
VL: B3 VL with G41E, L46S, F71Y
notes: Human IgG4 kappa (vector N5KG4P); also called b-b2
B26: H鎖キメラ/L鎖キメラ抗体(キメラATR-5抗体) (antibody, V domains shown)
VH: B9 VH
VL: B1 VL
notes: Mouse ATR-5 V regions joined to human C regions; Both an IgG1 (N5KG1(V)) and an IgG4 (N5KG4P) kappa vector were built; also called ch-ch; chATR-5

The binders below were run against T1, ヒト組織因子(TF)(ヒト膀胱癌細胞J82上に発現) (human, UniProt P13726 33-295) (assay: cell ELISA on fixed J82 cells).
T1 construct: whole, on cells; Target of the cell ELISA; also called ヒトTF; 抗原

Binding result, binds:
B1
B2
B3
B4
B5
B6
B7
B8
B9
B10
B11
B12
B13
B14
B15
B16
B17
B18
B19
B20
B21
B22
B23
B24
B25

What follows are binders tested against T2, 可溶型ヒトTF(アミノ酸配列1-219のC末端にFLAGペプチドを連結、CHO細胞発現) (human, UniProt P13726 33-251) (assay: dot blot of shTF on nitrocellulose: native, 8 M urea-denatured, and 8 M urea + 5 mM DTT).
T2 construct: also called shTF; 可溶型TF

Binding result, binds:
B26
B10
B11
B12

The binders below were run against T1, ヒト組織因子(TF)(ヒト膀胱癌細胞J82上に発現) (assay: cell ELISA on fixed J82 cells; chimeric antibody as the reference).

Binding result, binds:
B26
